Columns and labels:
Assay in all cases: 35S-HRV14 on COS cells
ICAM-1 D60/Q = ICAM-1 D60/Q (human, UniProt P05362)
Protocol: (§1) COS cells were seeded into 10 cm tissue culture plates such that they would be 50% confluent by 16-24 hrs. COS cells were then washed once with TBS and incubated for 4 hrs with 4 ml RPMI containing 10% Nu sera (Collaborative) 5 pg/ml chloroquine, 3 μg of mutant plasmid and 200 μg/ml DEAE-dextran sulfate. Cells were then washed with 10% DMSO/PBS followed by PBS and cultured 16 hrs in culture media. Culture media was replaced with fresh media and at 48 hrs post transfection (OS cells were suspended by trypsin/EDTA (Gibco) treatment and divided into 2, 10 cm plates as well as 24 well tissue culture plates for HRV binding. At 72 hrs cells were harvested from 10 cm plates with 5 mM EDTA/HBSS and processed for adhesion to LFA-1 coated plastic and immunofluorescence.
(§2) Binding occurred in 1 hr at 35° C. in a 5% CO₂ atmosphere with horizontal rotation (100 rpm). Unbound [³⁵S] HRV14 was aspirated, COS cells were gently washed with 150 ml of HRV buffer and then solubilized with 1% SDS in PBS for scintillation counting.
(§3) In Table 25, the notation for the mutations uses the one-letter code for the wild-type sequence followed by a slash and the one-letter code for the corresponding mutant sequence. The position of the first amino acid within the sequence is indicated. Wild type residues precede the slash followed by the residues they were substituted for in the mutant. COS cells expressing ICAM-1 mutants were tested for adherence to LFA-1 coated plastic and for binding 35S met-labeled HRV14. […] Binding is presented as mean and standard error (SE) for multiple experiments (n). […] The specific linear fluorescence intensity (SLFI) of CL203 for each mutant is normalized to that of wild type CL203 SLFI (% WT) as discussed above. The SLFI of RR1/1, R6.5 and LB-2 SLFI is normalized to the CL203 SLFI of the mutant (% CL203) as described above.

ICAM-1 S3/T = ICAM-1 S3/T (human, UniProt P05362)
Protocol: as §1, §2, §3

ICAM-1 L91/A = ICAM-1 L91/A (human, UniProt P05362)
Protocol: as §1, §2, §3

ICAM-1 K50V/EL = ICAM-1 K50V/EL (human, UniProt P05362)
Protocol: as §1, §2, §3

ICAM-1 Y52/F = ICAM-1 Y52/F (human, UniProt P05362)
Protocol: as §1, §2, §3

ICAM-1 A178/G = ICAM-1 A178/G (human, UniProt P05362)
Protocol: as §1, §2, §3

ICAM-1 D60/K = ICAM-1 D60/K (human, UniProt P05362)
Protocol: as §1, §2, §3

ICAM-1 V4/G = ICAM-1 V4/G (human, UniProt P05362)
Protocol: as §1, §2, §3

ICAM-1 S74/A = ICAM-1 S74/A (human, UniProt P05362)
Protocol: as §1, §2, §3

ICAM-1 Q1/E = ICAM-1 Q1/E (human, UniProt P05362)
Protocol: as §1, §2, §3

ICAM-1 M64/I = ICAM-1 M64/I (human, UniProt P05362)
Protocol: as §1, §2, §3

ICAM-1 S24/A = ICAM-1 S24/A (human, UniProt P05362)
Protocol: as §1, §2, §3

ICAM-1 E34/A = ICAM-1 E34/A (human, UniProt P05362)
Protocol: as §1, §2, §3

ICAM-1 S3VS/AGL = ICAM-1 S3VS/AGL (human, UniProt P05362)
Protocol: as §1, §2, §3

ICAM-1 Y83/S = ICAM-1 Y83/S (human, UniProt P05362)
Protocol: as §1, §2, §3

ICAM-1 E90/K = ICAM-1 E90/K (human, UniProt P05362)
Protocol: as §1, §2, §3

ICAM-1 D60/N = ICAM-1 D60/N (human, UniProt P05362)
Protocol: as §1, §2, §3

ICAM-1 N175TSA/QTLG = ICAM-1 N175TSA/QTLG (human, UniProt P05362)
Protocol: as §1, §2, §3

ICAM-1 N68/K = ICAM-1 N68/K (human, UniProt P05362)
Protocol: as §1, §2, §3

ICAM-1 H152HGA/EEGS = ICAM-1 H152HGA/EEGS (human, UniProt P05362)
Protocol: as §1, §2, §3

ICAM-1 D229QR/HLE = ICAM-1 D229QR/HLE (human, UniProt P05362)
Protocol: as §1, §2, §3

ICAM-1 E87/K = ICAM-1 E87/K (human, UniProt P05362)
Protocol: as §1, §2, §3

ICAM-1 Q27/L = ICAM-1 Q27/L (human, UniProt P05362)
Protocol: as §1, §2, §3

ICAM-1 K128/R = ICAM-1 K128/R (human, UniProt P05362)
Protocol: as §1, §2, §3

ICAM-1 D71/E = ICAM-1 D71/E (human, UniProt P05362)
Protocol: as §1, §2, §3

ICAM-1 E90/Q = ICAM-1 E90/Q (human, UniProt P05362)
Protocol: as §1, §2, §3

ICAM-1 D60S/KL = ICAM-1 D60S/KL (human, UniProt P05362)
Protocol: as §1, §2, §3

ICAM-1 N56V/HM = ICAM-1 N56V/HM (human, UniProt P05362)
Protocol: as §1, §2, §3

ICAM-1 Q73/T = ICAM-1 Q73/T (human, UniProt P05362)
Protocol: as §1, §2, §3

B1: human rhinovirus 14 (HRV14) (other)
chain: GAQVSTQKSGSHENQNILTNGSNQTFTVINYYKDAASTSSAGQSLSMDPSKFTEPVKDLMLKGAPALNSPNVEACGYSDRVQQITLGNSTITTQEAANAVVCYAEWPEYLPDVDASDVNKTSKPDTSVCRFYTLDSKTWTTGSKGWCWKLPDALKDMGVFGQNMFFHSLGRSGYTVHVQCNATKFHSGCLLVVVIPEHQLASHEGGNVSVKYTFTHPGERGIDLSSANEVGGPVKDVIYNMNGTLLGNLLIFPHQFINLRTNNTATIVIPYINSVPIDSMTRHNNVSLMVIPIAPLTVPTGATPSLPITVTIAPMCTEFSGIRSKSIVPQGLPTTTLPGSGQFLTTDDRQSPSALPNYEPTPRIHIPGKVHNLLEIIQVDTLIPMNNTHTKDEVNSYLIPLNANRQNEQVFGTNLFIGDGVFKTTLLGEIVQYYTHWSGSLRFSLMYTGPALSSAKLILAYTPPGARGPQDRREAMLGTHVVWDIGLQSTIVMTIPWTSGVQFRYTDPDTYTSAGFLSCWYQTSLILPPETTGQVYLLSFISACPDFKLRLMKDTQTISQTVALTEGLGDELEEVIVEKTKQTVASISSGPKHTQKVPILTANETGATMPVLPSDSIETRTTYMHFNGSETDVECFLGRAACVHVTEIQNKDATGIDNHREAKLFNDWKINLSSLVQLRKKLELFTYVRFDSEYTILATASQPDSANYSSNLVVQAMYVPPGAPNPKEWDDYTWQSASNPSVFFKVGDTSRFSVPYVGLASAYNCFYDGYSHDDAETQYGITVLNHMGSMAFRIVNEHDEHKTLVKIRVYHRAKHVEAWIPRAPRALPYTSIGRTNYPKNTEPVIKKRKGDIKSY
modifications: [35S]-Met labeled
ICAM-1 D60/Q
  HRV Binding %: 20 % of wild type
ICAM-1 S3/T
  HRV Binding %: 196 % of wild type
ICAM-1 L91/A
  HRV Binding %: 105 % of wild type
ICAM-1 K50V/EL
  HRV Binding %: 10 % of wild type
ICAM-1 Y52/F
  HRV Binding %: 174 % of wild type
ICAM-1 A178/G
  HRV Binding %: 102 % of wild type
ICAM-1 D60/K
  HRV Binding %: 4 % of wild type
ICAM-1 V4/G
  HRV Binding %: 30 % of wild type
ICAM-1 S74/A
  HRV Binding %: 156 % of wild type
ICAM-1 Q1/E
  HRV Binding %: 149 % of wild type
ICAM-1 M64/I
  HRV Binding %: 107 % of wild type
ICAM-1 S24/A
  HRV Binding %: 99 % of wild type
ICAM-1 E34/A
  HRV Binding %: 66 % of wild type
ICAM-1 S3VS/AGL
  HRV Binding %: 61 % of wild type
ICAM-1 Y83/S
  HRV Binding %: 86 % of wild type
ICAM-1 E90/K
  HRV Binding %: 50 % of wild type
ICAM-1 D60/N
  HRV Binding %: 89 % of wild type
ICAM-1 N175TSA/QTLG
  HRV Binding %: 40 % of wild type
ICAM-1 N68/K
  HRV Binding %: 137 % of wild type
ICAM-1 H152HGA/EEGS
  HRV Binding %: 82 % of wild type
ICAM-1 D229QR/HLE
  HRV Binding %: 106 % of wild type
ICAM-1 E87/K
  HRV Binding %: 27 % of wild type
ICAM-1 Q27/L
  HRV Binding %: 57 % of wild type
ICAM-1 K128/R
  HRV Binding %: 137 % of wild type
ICAM-1 D71/E
  HRV Binding %: 140 % of wild type
ICAM-1 E90/Q
  HRV Binding %: 157 % of wild type
ICAM-1 D60S/KL
  HRV Binding %: 1 % of wild type
ICAM-1 N56V/HM
  HRV Binding %: 101 % of wild type
ICAM-1 Q73/T
  HRV Binding %: 133 % of wild type
